One molecule from patent US20260022175A1 (Chugai, published 2026) can be followed below.

The target in test [1] is T1, human FcRn (human, UniProt P55899 24-290; P61769 21-119).
T1 construct: Prepared by the method of WO 2010/107110; also called hFcRn
Kind of test: SPR; KD of 04H1637-G1m/04L1610-lam1 divided by KD of variant. (In general: In SPR one partner is held on a chip, and binding of the other changes the refractive index at the surface.)
Protocol: (§1) The interaction between the generated antibodies and human FcγRs was analyzed by the following method using Biacore T200. 50 mM Na-Phosphate, 150 mM NaCl, 0.05% Tween20 (pH 7.4) was used as the running buffer, and the assay was performed at 25° C. For the sensor chips, Series S SA (GE Healthcare) chips onto which CaptureSelect Human Fab-lambda Kinetics Biotin Conjugate (Thermo Fisher Scientific) was immobilized were used. The antibodies of interest were captured onto these chips and each FcγR diluted in the running buffer was allowed to interact with them. Chips were regenerated with 10 mM Glycine-HCl (pH 1.5) and 25 mM NaOH, and assay was performed by repeatedly capturing antibodies. The dissociation constants KD (mol/L) for FcγRs of each antibody were calculated using Biacore T200 Evaluation Software 2.0, using the 1:1 Langmuir binding model for FcγRIa and FcγRIIIa and the steady state affinity model for FcγRIIa. For FcγRIIb, the binding amount of FcγRIIb per unit amount of antibody was calculated by correcting the binding amount of FcγRIIb obtained from the sensorgram obtained by the measurement with the amount of antibody captured onto the chip surface.
(§2) The interaction between the generated antibodies and human FcRn was analyzed by the following method using Biacore T200. 50 mM Na-Phosphate, 150 mM NaCl, 0.05% Tween20 (pH 6.0) was used as the running buffer, and the assay was performed at 25° C. For the sensor chip, Series S SA (GE Healthcare) chips onto which CaptureSelect Human Fab-lambda Kinetics Biotin Conjugate (Thermo Fisher Scientific) was immobilized were used. The antibodies of interest were captured onto these chips and FcRn diluted in the running buffer was allowed to interact with them. Chips were regenerated with 10 mM Glycine-HCl (pH 1.5) and 25 mM NaOH, and assay was performed by repeatedly capturing antibodies. The dissociation constant for FcRn of each antibody was calculated using the steady state model, using Biacore T200 Evaluation Software 2.0.

In test [2] the target is T2, human FcγRIIIa F allotype extracellular domain with C-terminal His-tag (human, UniProt P08637 17-208).
T2 construct: extracellular domain; also called hFcγR IIIa F
The description is as above.
Protocol: as §1, §2

Test [3] addresses T3, human FcγRIIa H allotype extracellular domain with C-terminal His-tag (human, UniProt P12318 34-217).
T3 construct: extracellular domain; also called hFcγR IIa H
T3 sequence (looked up): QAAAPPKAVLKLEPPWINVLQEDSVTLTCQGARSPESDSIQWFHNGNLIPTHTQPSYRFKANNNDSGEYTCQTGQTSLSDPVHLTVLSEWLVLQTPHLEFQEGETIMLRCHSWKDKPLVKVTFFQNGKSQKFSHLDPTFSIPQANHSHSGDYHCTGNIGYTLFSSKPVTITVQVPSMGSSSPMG
The test is described as above.
Protocol: as §1, §2

The target in test [4] is T4, human FcγRIa extracellular domain with C-terminal His-tag (human, UniProt P12314 16-292).
T4 construct: extracellular domain; also called hFcγR Ia; hFcγRIa
Described as above.
Protocol: as §1, §2

Test [5] concerns the target T5, human FcγRIIa R allotype extracellular domain with C-terminal His-tag (human, UniProt P12318 34-217).
T5 construct: extracellular domain; also called hFcγR IIa R
T5 sequence (looked up): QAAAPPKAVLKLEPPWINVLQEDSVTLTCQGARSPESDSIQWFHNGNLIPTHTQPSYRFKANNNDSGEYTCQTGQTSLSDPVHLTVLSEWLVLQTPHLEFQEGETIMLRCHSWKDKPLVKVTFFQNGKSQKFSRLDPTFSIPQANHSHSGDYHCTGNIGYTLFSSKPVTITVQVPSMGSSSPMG
The description is as above.
Protocol: as §1, §2

Test [6] deals with T6, human FcγRIIIa V allotype extracellular domain with C-terminal His-tag (human, UniProt P08637 17-208).
T6 construct: extracellular domain; also called hFcγR IIIa V
The test is described as above.
Protocol: as §1, §2

Test [7] has as its target T1, human FcRn. Kind of test: SPR Biacore T200, Ab captured via Fab-lambda, pH 6.0, 25C, steady state.
The target of test [8] is T2, human FcγRIIIa F allotype extracellular …. Nature of the test: SPR Biacore T200, Ab captured via Fab-lambda, pH 7.4, 25C.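 Note: antibodies captured on a streptavidin chip carrying biotinylated anti-Fab-lambda, with each FcγR injected as analyte in phosphate buffer. KD fitted by 1:1 Langmuir or steady-state model depending on receptor.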
Protocol: as §1
Test [9] deals with T3, human FcγRIIa H allotype extracellular …. Described as above.
Protocol: as §1
For test [10], the target named is T4, human FcγRIa extracellular domain with …. The description is as above.
Protocol: as §1
Test [11] addresses T5, human FcγRIIa R allotype extracellular …. Described as above.
Protocol: as §1
Test [12] has as its target T6, human FcγRIIIa V allotype extracellular …. The description is as above.
Protocol: as §1
The target of test [13] is T7, human FcγRIIb extracellular domain with C-terminal His-tag (human, UniProt P31994 43-217).
T7 construct: extracellular domain; also called hFcγR IIb
T7 sequence (looked up): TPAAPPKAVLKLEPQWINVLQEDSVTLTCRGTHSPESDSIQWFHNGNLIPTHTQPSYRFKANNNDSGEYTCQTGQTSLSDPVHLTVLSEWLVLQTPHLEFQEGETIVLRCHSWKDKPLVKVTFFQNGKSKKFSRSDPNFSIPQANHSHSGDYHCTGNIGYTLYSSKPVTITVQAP
Kind of test: SPR; FcγRIIb at 1000 nM, bound amount per unit captured Ab.

Test [14] addresses T7, human FcγRIIb extracellular domain with …. Nature of the test: SPR; binding amount divided by that of 04H1637-G1m/04L1610-lam1.
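Throughout, for Relative value to KD between G1m and hFcRn: biacore T200 SPR at 25 °C, antibodies captured on anti-Fab-lambda SA chip with receptor as analyte, running buffer pH 7.4 for FcγRs and pH 6.0 for FcRn.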
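Throughout, for Relative value to KD between G1m and hFcγRs: biacore T200 SPR at 25 °C, antibodies captured on anti-Fab-lambda SA chip with receptor as analyte, running buffer pH 7.4 for FcγRs and pH 6.0 for FcRn.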

T1 sequence (P55899 24-290 limits assumed, chain 1 of 2): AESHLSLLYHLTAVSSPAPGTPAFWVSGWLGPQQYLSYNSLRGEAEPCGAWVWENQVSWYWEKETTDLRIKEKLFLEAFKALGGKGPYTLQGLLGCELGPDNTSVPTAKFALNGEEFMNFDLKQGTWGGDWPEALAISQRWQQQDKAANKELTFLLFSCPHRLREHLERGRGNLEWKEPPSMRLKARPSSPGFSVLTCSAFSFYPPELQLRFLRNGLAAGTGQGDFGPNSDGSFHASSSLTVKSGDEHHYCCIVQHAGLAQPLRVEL
T1 sequence (P61769 21-119 limits assumed, chain 2 of 2): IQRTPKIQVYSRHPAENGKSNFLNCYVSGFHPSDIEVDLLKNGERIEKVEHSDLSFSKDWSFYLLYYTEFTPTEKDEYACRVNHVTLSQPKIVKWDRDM
T6 sequence (P08637 17-208 F176V): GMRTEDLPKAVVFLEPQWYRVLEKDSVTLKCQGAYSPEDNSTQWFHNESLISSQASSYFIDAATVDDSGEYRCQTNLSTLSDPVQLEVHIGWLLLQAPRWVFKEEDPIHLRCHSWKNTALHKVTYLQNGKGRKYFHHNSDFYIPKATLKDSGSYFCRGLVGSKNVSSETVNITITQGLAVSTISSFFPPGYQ
T4 sequence (P12314 16-292): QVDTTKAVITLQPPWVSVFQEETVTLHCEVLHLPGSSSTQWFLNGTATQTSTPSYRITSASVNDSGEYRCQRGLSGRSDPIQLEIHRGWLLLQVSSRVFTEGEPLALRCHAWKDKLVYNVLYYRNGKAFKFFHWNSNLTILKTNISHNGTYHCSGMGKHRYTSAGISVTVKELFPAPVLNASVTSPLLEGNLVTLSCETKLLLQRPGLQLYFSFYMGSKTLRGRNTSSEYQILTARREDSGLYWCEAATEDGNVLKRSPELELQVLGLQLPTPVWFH
T2 sequence (P08637 17-208): as the sequence (P08637 17-208 F176V) above, with V160F counted along it

B1: 04H1654-KT462/04L1610-lam1//04H1656-HT445/04L1610-lam1 (antibody, human IgG1, lambda)
heavy 1: QVQLVESGGGVVQPGGSLRLSCAASGFTFSSKTMNWVRQAPGKGLEWVSSISTQSHYIYYARSVRGRFTISRDNAKNSLYLQMNSLRAEDTAVYYCARYGKREDMLWVFDYWGQGTLVTVSSASTKGPSVFPLAPSSKSTSGGTAALGCLVKDYFPEPVTVSWNSGALTSGVHTFPAVLQSSGLYSLSSVVTVPSSSLGTQTYICNVNHKPSNTKVDKRVEPKSCDKTHTCPPCPAPEFQWGPMVFLFPPKPKDVLMISRTPEVTCVVVDVSDEEPEVKFNWYVDGVEVHNAKTKPREEQYNATYRVVSVLPVLHQDWLNGKEYKCKVSNDALPAPIEKTISKAKGQPREPQVYTLPPSRKEMTKNQVSLTCLVKGFYPSDIAVEWESNGQPENNYKTTPPVLDSDGSFFLYSKLTVDKSRWQQGNVFSCSVMHEALHNHYTQKSLSLSP
heavy 2: QVQLVESGGGVVQPGGSLRLSCAASGFTFSSKTMNWVRQAPGKGLEWVSSISTQSHYIYYAESVRGRFTISRDNAKNSLYLQMNSLRAEDTAVYYCARYGAREDMLWVFDYWGQGTLVTVSSASTKGPSVFPLAPSSKSTSGGTAALGCLVKDYFPEPVTVSWNSGALTSGVHTFPAVLQSSGLYSLSSVVTVPSSSLGTQTYICNVNHKPSNTKVDKRVEPKSCDKTHTCPPCPAPELLAGPSVFLFPPKPKDVLMISRTPEVTCVVVDVSHEEPEVKFNWYVDGVEVHNAKTKPREEQYNATYRVVSVLPVLHQDWLNGKEYKCKVSNDALPKPDEETISKAKGQPREPQVYTLPPSREEMTKNQVSLTCLVKGFYPSDIAVEWESNGQPENNYKTTPPVLDSDGSFFLYSKLTVDKSRWQQGNVFSCSVMHEALHNHYTQESLSLSP
light: QSALTQPPSASGSPGQSVTISCEGPSTGVGDYNWVHWYQQHPGKAPKLMIYFTSKKPSGVPDRFSGSKSGNTASLTVSGLQAEDEADYYCQTYAAPLGPMFGGGTKLTVLGQPKAAPSVTLFPPSSEELQANKATLVCLISDFYPGAVTVAWKADSSPVKAGVETTTPSKQSNNKYAASSYLSLTPEQWKSHRSYSCQVTHEGSTVEKTVAPTECS
notes: Heterodimerized antibody, IGHG1*03 constant region, E356K / K439E
With B1, in the test with human FcRn [1], the “Relative value to KD between G1m and hFcRn” value was found to be 0.9. The “Relative value to KD between G1m and hFcγRs” value in test [2] is 415; in test [3] it was 13.9; in [4] it was 1.6; in test [5], 13; in [6], 110. Further, the Kd (in general, the concentration at which binding is half-saturated) turned out to be 1500 nM in the test with human FcRn [7]; 3.3 nM in test [8]; 110 nM in test [9]; 0.03 nM in test [10]; 160 nM in test [11]; 2.2 nM in test [12]. The molecule also came in with a Binding amount in [13] of 0.025. The molecule further displayed a Relative binding amount in test [14] of 3.1.
